Legend:
[1] = biological target: unmodified mononucleosome; assay: SEC-MALS; mononucleosomes (300 pmol) with the catalytic domain of hDot1L (8.5 nmol) in 25 mM Tris-HCl, 150 mM NaCl, pH 7.8, 4 °C 30 min; Superdex 200 10/300
[2] = biological target: mononucleosome containing H2B-Ub (ubiquitin on Lys120 of H2B by a stable isopeptide linkage) (UniProt P62807); assay: as above

stoichiometry N (hDot1L per mononucleosome) [1]: 1
stoichiometry N (hDot1L per mononucleosome) [2]: 2
Substance: cysteine-less catalytic domain of hDot1L, hDot1L(1–416)C44S/C74S/C178S (from UniProt Q8TEK3 2-417) (enzyme)

— paper PMC4740876
